# Data taken from patent US12466878 (IMMATICS BIOTECHNOLOGIES, dated 2025).
# Target: T1, HLA-A*02:01 (human)
# T1 construct: the format of the assay is not described
# Experiment: ELISA-based peptide-MHC binding assay (FIG. 5)
binder,measurement,value
KIQEILTQV [IGF2BP3-001 peptide KIQEILTQV (SEQ ID NO: 1)],binding result,binds
